From the DeepSol protein solubility set

experiment: soluble on expression in E. coli; label from the status in PepcDB or PDB records

Sequence	soluble on expression in E. coli
MQAQQLPYEFFSEENAPKWRGLLVPALKKVQGQVHPTLESNDDALQYVEELILQLLNMLCQAQPRSASDVEERVQKSFPHPIDKWAIADAQSAIEKRKRRNPLSLPVEKIHPLLKEVLGYKIDHQVSVYIVAVLEYISADILKLVGNYVRNIRHYEITKQDIKVAMCADKVLMDMFHQDVEDINILSLTDEEPSTSGEQTYYDLVKAFMAEIRQYIRELNLIIKVFREPFVSNSKLFSANDVENIFSRIVDIHELSVKLLGHIEDTVEMTDEGSPHPLVGSCFEDLAEELAFDPYESYARDILRPGFHDRFLSQLSKPGAALYLQSIGEGFKEAVQYVLPRLLLAPVYHCLHYFELLKQLEEKSEDQEDKECLKQAITALLNVQSGMEKICSKSLAKRRLSESACRFYSQQMKGKQLAIKKMNEIQKNIDGWEGKDIGQCCNEFIMEGTLTRVGAKHERHIFLFDGLMICCKSNHGQPRLPGASNAEYRLKEKFFMRKVQINDKDDTNEYKHAFEIILKDENSVIFSAKSAEEKNNWMAALISLQYRSTLERMLDVTMLQEEKEEQMRLPSADVYRFAEPDSEENIIFEENMQPKAGIPIIKAGTVIKLIERLTYHMYADPNFVRTFLTTYRSFCKPQELLSLIIERFEIPEPEPTEADRIAIENGDQPLSAELKRFRKEYIQPVQLRVLNVCRHWVEHHFYDFERDAYLLQRMEEFIGTVRGKAMKKWVESITKIIQRKKIARDNGPGHNITFQSSPPTVEWHISRPGHIETFDLLTLHPIEIARQLTLLESDLYRAVQPSELVGSVWTKEDKEINSPNLLKMIRHTTNLTLWFEKCIVETENLEERVAVVSRIIEILQVFQELNNFNGVLEVVSAMNSSPVYRLDHTFEQIPSRQKKILEEAHELSEDHYKKYLAKLRSINPPCVPFFGIYLTNILKTEEGNPEVLKRHGKELINFSKRRKVAEITGEIQQYQNQPYCLRVESDIKRFFENLNPMGNSMEKEFTDYLFNKSLEIEPRNPKPLPRFPKKYSYPLKSPGVRPSNPRPGT	soluble
MQCYSIVGINYIQIYKAVTRNGIKHNIVVIKNSDYIFTITHYSPRTEYWTIVGNTDRQFYDANVLHNCLYIIGGMINNRHVYSVSRVDLKTKKWKTVTNMSSLKSEVSTCVNDGKLYVIGGLEFSISTGIAEYLKHGTSKWKRLPNLITPRYSGASVFVNDDIYVMGGVYTTMRNM	not soluble
MQEIIASVDHIKFDLEIAVEQQLGAQPLPFPGMDKSGAAVCEFFLKAACGKGGMCPFRHISGEKTVVCKHWLRGLCKKGDQCEFLHEYDMTKMPECYFYSKFGECSNKECPFLHIDPESKIKDCPWYDRGFCKHGPLCRHRHTRRVICVNYLVGFCPEGPSCKFMHPRFELPMGTTEQPPLPQQTQPPAKQRTPQVIGVMQSQNSSAGNRGPRPLEQVTCYKCGEKGHYANRCTKGHLAFLSGQ	soluble
MQEISFRDDILPLKDKLFRLALRITFDRAEAEDVVQDTMIRVWNKREEWTQFGSIEAYCLTVAKNLAIDRSQKKEAQNVELTPEMEEESEISGPYDQ	not soluble
MQEKQHIHIGEIIQRLSGRKLPQPLIRLLERLIHQDEINDILDRYGHLEGVDFMTALVGYFHVDIDWNGADRLPSDKRCLFVSNHPLGGLDGICLSHLIGSHYDSDVRYIVNDILFHLRPLRKIFVPVNTRGRQKRESIDRLQEALESDLPVITFPAGFCSRLIEGKVQDTPWKKSFVRQAYASKRDIVPLFFDGLNSKRFYRIERLRQLLGLKFNIGMALLPDEMFRSKGRHFRVFAGRPIPWQSLASAPRDTAEQALHIRSLVYDLSPSALKK	not soluble
MQEPQARIAALLRDADDILITTHANPDGDAIGSLGAMGHVLATLGKRFCLCNVSGVPSHLSWVPLPGQVYTSFDELPFQPRLAIVLDCGDEKRPGEALRAPLADLPSINIDHHQGNPLFGTVDNWVEPQRAATGEMVAEIALALGQPLAGALGECLYLALVSDTGSFSFGNTSARVLSLAAEIVGNGLDVAALTERHDNQWSFARMQLWGRLMQEMRLAFDGTVAISVIPDALIESCGARRADLEGWASQMRKVRGVRVSVMVRGNGPEGSKVSLRSTGSDDVRAVAARFGGGGHRNAAGVEMPLPPEEASRQVVAALGEQLGLDGDGASLYVLEHHHHHH	soluble
MQEVKQWPVKIMLVHPKAPFLKGEKIVIAADCAVLVNRDIRDRFESDAVIIGCPMLEDPRRMFERIKMIVAESDAKLEVYTMEVPCCHALHLMVEKAKEEHGKQTESEKYIVRVSGAVEPYSKKIDESMIEAERRAHRGH	not soluble
MQFFDGYHYHGTTFEQSYRCYPASFIDKPQLESGDKIIMPPSALDRLASLHIDYPMLFELRNAGIERVTHCGVLEFIAEEGMIYMPYWMMQNLLLQEGDIVRVRNVTLPKGTYVKLQPHTTDFLDISNPKAILETALRNYSCLTSGDSIMVPYNNKKYFIDIVETKPANAISIIETDCEVDFAPPLDYKEPERPTAPSAAKGPAKAEEVVDEPEPKFNPFTGSGRRLDGRPLAYEPAPASSSKGKQPVVANGNGQSSVASSSEKATRAQGKLVFGANGNRAPKEAAPKVGAAKETKKEEQEKKDEPKFQAFSGKKYSLRG	soluble
MQFLSIGVNDDADSLKEYLINELARNNKKNINYLVRDVADSEGSTSIICSLADNDAPSDMNSHLYKELVLNVSNALATFIIDKYEEKLIYRIINSNYCYFTQAERKEIQRLTLAIIKNEERNLLNSFFQIRRKNIIIKRLLEYFESSNTVILDGFVNFRLKDYMKDLEEIVEKAVDDFLMEREYREFIRLLRYFVDIQEPKFNAVHIIAGYDNKYVLLDENKNEITNECLQEFVNDIPEGEINYDDLLVSSLITMAPRKLVIHGAKSFRNKELLETIKNVFWGKVVICSECELCMVNMVRSENKSQI	not soluble
MQFSYVNPTMIHFGQGQIASIRRDIPKDHKVLVLYGGGSIKRNGVYDQVVEALSEHQWVEFSGVEPNPTKETLDKAVHIVKNQHIDFILAVGGGSVIDGSKYVAAAAFYEGDGWDILTGQHTVKQATPIGAILTLPATGSESNTGAVITKAETQDKLAFLSPAVQPRFAVLDPDVMKSLPERQLVNGLVDAWVHVCEQYLTLPTQAMVQEGYAEVLLRNLLALGADFVNRDNDAWRANLMWTANQALNGLIGTGVPQDWATHMIGHELTALWHVDHARSLAIVQPWLLRNQLKHKKAKLEQMGKNVFGLPQSDDLAEKTIAAIEAFYHQLNVATQFGEHGMAKEAAVDAVLQQLTAHGMHKLGEQGTIDLQESRKILENALY	not soluble
MQGDPDVLRLLNEQLTSELTAINQYFLHSKMQDNWGFTELAAHTRAESFDEMRHAEEITDRILLLDGLPNYQRIGSLRIGQTLREQFEADLAIEYDVLNRLKPGIVMCREKQDTTSAVLLEKIVADEEEHIDYLETQLELMDKLGEELYSAQCVSRPPT	not soluble
MQGQGDLFESTDWQEVRQGKLFYQPNFLSQQEADTYFSTLMSTLPWQQERITIFGKSVLQPRLQTWHGDAPYTYSGLTMAPHPWTSELSSLKARCESLANTPFNSVLANLYRDGQDSMGWHQDNEPELGRNPVIASLNLGDTRRFVLRNLHCKTQIEYELGHGALLIMAGELQHHWRHCVPKTAKPKGERINLTFRHILNYLEHHHHHH	soluble
MQINGKAPRNKDLEPHSFELWLNAAKTNLDKYEMALIITATLGLRRGEVMGLRNESIKISHDQINDADVAQISIDMQRNTNELNGGPLKTKSSYRTIWAFGKTVDHLKYAMITADNLRQRNNIQAEKHWLWLNNDGNPLHPTHLNRLMRRVSNRSGVEVYPHLLRHYFATQAIAANKPQIDVMHYLGHKNLQMTADYTRSTKAASLNVFNSIDKFLLEHHHHHH	soluble
MQITQGQRIPLSTLIQGNDLTLSIVIKSAHVIDYVCFGVDANGKLSDDRYMIFFNQPTSPCNSVKQANGGDFQLALDSLPASIDRLVFTASIDGAGVMSDIQASHFSIQHQGREVARGEFSGATFAAEKAIMVADIYRKNGEWRIASNLQGYNAGLDALVGHFGGVADAPPAAPAAPARISLEKKIADAAPQLISLAKKAQVSLEKAKLTDTKARVGLVLDASGSMNPQYTRGHVQEVVDRLIPLAVHFDDDGALDCWAFGAKPQQLNAITLKNFQNFIKTDHGGWKDWELGSRINDEPKAMRMVIDYYKKSGDKTPVYILFISDGGVHQDREITKLMIEAAKLPIFWQFVGLGGRGYGILEKLDDMGGRVVDNCNFFALDRLDEVPEEKLYDLLMEEFPDWLNAAKGAGIL	not soluble
